Reference: article PMC5577389

Molecular target: 6xHis-FN1, the first fibronectin type III repeat (FN1) of the neural cell adhesion molecule NCAM
Experiment: ITC

- Kd: 10.9 µM
- dH: 0.991 kcal/mol
- stoichiometry N: 1.06
Substance: 6xHis-SUMO-PBR, ST8Sia-IV polybasic region peptide (residues 75-100) fused to an N-terminal 6xHis-SUMO tag (from UniProt Q92187 75-100)
